Entries after “also recorded” stand apart in the source; their conditions may differ.
B1: GPVI-Fc: dimeric soluble glycoprotein VI-Fc fusion protein (Revacept), Fc derived from human IgG1, in clinical investigation (protein)
chain: QSGPLPKPSLQALPSSLVPLEKPVTLRCQGPPGVDLYRLEKLSSSRYQDQAVLFIPAMKRSLAGRYRCSYQNGSLWSLPSDQLELVATGVFAKPSLSAQPGPAVSSGGDVTLQCQTRYGFDQFALYKEGDPAPYKNPERWYRASFPIITVTAAHSGTYRCYSFSSRDPYLWSAPSDPLELVVTGTSVTPSRLPTEPPSPVAEFSEATAELTVSFTNEVFTTETSRSITASPKESDSPAGPARQYYTK
modifications: left off: a dimerising Fc or GST
notes: dimeric soluble glycoprotein VI-Fc fusion protein (Revacept), Fc derived from human IgG1, in clinical investigation
B2: GPVI-CD39: fusion protein of extracellular domain of platelet glycoprotein VI, Fc of human IgG2 and extracellular domain of human CD39, 15 amino acid linker (SEQ ID NO: 1) (protein, listed as Homo sapiens)
chain: QSGPLPKPSLQALPSSLVPLEKPVTLRCQGPPGVDLYRLEKLSSSRYQDQAVLFIPAMKRSLAGRYRCSYQNGSLWSLPSDQLELVATGVFAKPSLSAQPGPAVSSGGDVTLQCQTRYGFDQFALYKEGDPAPYKNPERWYRASFPIITVTAAHSGTYRCYSFSSRDPYLWSAPSDPLELVVTGTSVTPSRLPTEPPSSVAEFSEATAELTVSFTNKVFTTETSRSITTSPKESDSPAGPARQYYTKGNGGRVECPPCPAPPVAGPSVFLFPPKPKDTLMISRTPEVTCVVVDVSHEDPEVQFNWYVDGVEVHNAKTKPREEQFNSTFRVVSVLTVVHQDWLNGKEYKCKVSNKGLPAPIEKTISKTKGQPREPQVYTLPPSREEMTKNQVSLTCLVKGFYPSDIAVEWESNGQPENNYKTTPPMLDSDGSFFLYSKLTVDKSRWQQGNVFSCSVMHEALHNHYTQKSLSLSPGKGGGGSGGGGSGGGGSTQNKALPENVKYGIVLDAGSSHTSLYIYKWPAEKENDTGVVHQVEECRVKGPGISKFVQKVNEIGIYLTDCMERAREVIPRSQHQETPVYLGATAGMRLLRMESEELADRVLDVVERSLSNYPFDFQGARIITGQEEGAYGWITINYLLGKFSQKTRWFSIVPYETNNQETFGALDLGGASTQVTFVPQNQTIESPDNALQFRLYGKDYNVYTHSFLCYGKDQALWQKLAKDIQVASNEILRDPCFHPGYKKVVNVSDLYKTPCTKRFEMTLPFQQFEIQGIGNYQQCHQSILELFNTSYCPYSQCAFNGIFLPPLQGDFGAFSAFYFVMKFLNLTSEKVSQEKVTEMMKKFCAQPWEEIKTSYAGVKEKYLSEYCFSGTYILSLLLQGYHFTADSWEHIHFIGKIQGSDAGWTLGYMLNLTNMIPAEQPLSTPLSHST

Experiments:
[1] = test system: Citrated blood of healthy donors; experiment: In vitro closure time with Innovance PFA-200; type: cell-based; details: human blood ex vivo; for PFA-200 closure time, COL/ADP cartridges / PFA-200 closure time, COL/EPI cartridges: GPVI-CD39 21.7 to 217 nmol/L, versus PBS buffer control
Excerpt: (§1) Informed consent was obtained as approved by the local Ethics Committee. An overall number of 58 healthy volunteers was included into the study: blood samples from 39 subjects were taken for in vitro experiments using vascular agonists, and blood samples from 19 subjects for experiments involving human plaque material.
Citrated blood of healthy donors was mixed with antagonist in concentrations indicated in the figures, and added to Dade® PFA COL/EPI, Dade® PFA COL/ADP, or Innovance® PFA P2Y test cartridges (Siemens Healthcare, Erlangen, Germany). Blood was aspirated under high shear conditions (>5000/s) through a capillary onto a membrane with a small aperture coated with substances which activate platelets and lead to closure of this aperture. The time until closure of this aperture is monitored and expressed as in vitro closure time with a maximum closure time of 300 s.

C57BL/6J mice = experiment: In vivo tail bleeding time in mice; set-up: species or system mouse; details: 15 min after IV 13 nmol/kg (4 mg/kg GPVI-CD39, 2 mg/kg GPVI-Fc), versus vehicle or buffer
Method: Test or control substances were applied into the tail vein of C57BL/6J mice. Animals were anesthetized by intraperitoneal injection of 0.5 mg/kg medetomidine, 5 mg/kg midazolame, and 0.05 mg/kg fentanyl. 10 min after protein delivery a blood sample of 20 μl was drawn for analysis of recombinant protein content and ADPase activity using a heparinized capillary. 15 min after protein application the distal 2 mm of the tail were cut off, the tail was immediately immersed into pre-warmed PBS (37° C.) buffer and time-monitored until bleeding stopped for at least 30 s. […] Animals were sacrificed and a final blood sample stored for analysis.

human platelets = experiment: Platelet aggregation in human blood under static conditions (Multiplate impedance aggregometry); type: cell-based; details: for inhibition of ADP-induced platelet aggregation: 6.5 μM ADP, equimolar concentrations; for inhibition of ADP-induced platelet aggregation / inhibition of collagen-induced platelet aggregation: human blood; for inhibition of platelet aggregation triggered by human plaque material: same concentrations
Method: as §1
The effect of GPVI-CD39 and control proteins on platelet aggregation was analyzed using the Multiplate® device (25). 1:1 diluted hirudin-anticoagulated blood was pre-incubated with antagonist for 3 min in the test cell without stirring to avoid platelet pre-activation (26). Agonist was added and samples were incubated for 6 min at 37° C. with stirring. The following agonists were used: 6.5 μM ADP, 12 μg/ml collagen isolated from rabbit aorta, or 103 μg/ml collagen type I secreted by human fibroblasts (VitroCol®, Advanced BioMatrix, San Diego, Calif.). Platelet aggregation was measured in arbitrary units over the time period (arbitrary units (AU)*min) (cumulative aggregation values).

[2] = ADPase activity in plasma samples from the pharmacokinetic study; type: in vivo, mouse; details: mice, IV 4 mg/kg GPVI-CD39 or 2 mg/kg solCD39, up to 48 h
Method: (§2) Various concentrations of GPVI-CD39 or solCD39 protein or plasma samples from the pharmacokinetic study diluted 1:500-1:2000 in assay buffer were incubated in 25 mM Tris-HCl, 5 mM CaCl2, pH 7.5 with 200 μM ADP in a total volume of 100 μl for 30 min or 5 min at 37° C. Enzymatically released Pi was detected using the Malachite Green Phosphate Detection Kit (R&D Systems, Minneapolis, Minn.) according to the supplier's manual. A serial dilution of Pi standard was analyzed in parallel which facilitates quantification of released Pi. Absorbance was measured at a wave length of 630 nm using a Tecan Infinite 200 ELISA reader. Enzymatic activity of purified protein was calculated taking incubation time and protein amount into account and expressed as Units per mg of protein.
(§3) ale and female wild type C57BL/6J mice of the age of 12-22 weeks were used in this small scale study. An overall number of 9 mice were investigated. GPVI-CD39 or solCD39 were applied in a volume of 5 ml/kg into the right tail vein. At time points indicated in the figure blood sampling was performed by incision of the left tail vein using 25 μl heparinized capillaries. Blood samples were recovered by centrifugation at 2400×g for 10 min. The upper plasma phase was transferred to fresh tubes and stored frozen at −20° C.

[3] = Pharmacokinetic analysis: protein concentration in plasma by Fc-specific sandwich ELISA; type: in vivo, mouse; details: mice, 4 mg/kg IV
Method: as §3
The concentration of GPVI-CD39 or Fc control protein in plasma samples was determined by Fc-specific sandwich ELISA. Wells of a MaxiSorp 96-well plate (Thermo Fisher Scientific, Waltham, Mass.) were coated with 0.1 μg/well goat-anti-human Fcγ antibody. Wells were washed three times with phosphate-buffered saline and tween-20 (PBST) between incubations. After blocking with 3% skimmed milk in PBST wells were incubated for 1 h with 50 μl of plasma from GPVI-CD39 treated (1:200) or Fc (1:500) treated mice diluted in PBST. Wells were incubated for 1 h with 100 μl of 80 ng/ml goat-anti-human IgG (H+L)-POD detection antibody. POD activity was visualized using 100 μl of Ultra TMB-ELISA substrate (Thermo Fisher Scientific, Waltham, Mass.) and signal intensities were read with a Tecan Infinite F200 ELISA reader.

[4] = ADPase activity of purified protein (Malachite Green phosphate detection); type: biochemical; details: purified protein at various concentrations, 200 μM ADP, 37° C., pH 7.5
Method: as §2

C57BL/6J wild type mice = experiment: In vivo thrombus formation after FeCl3 injury in carotid arteries; set-up: species or system mouse
Method: For examination of arterial thrombus formation in vivo, 6-8 weeks old C57BL/6J wild type mice were anesthetized by injection of midazolame (5 mg/kg body weight), medetomidine (0.5 mg/kg body weight) and fentanyl (0.05 mg/kg body weight). In the ferric chloride model, an overall number of 21 mice was studied.
The common carotid artery was dissected free and the mice were injected intravenously 30 minutes before carotid injury with GPVI-CD39 (3 mg/kg body weight) or its control and with GP1bα-488 (Emfret Analytics, Eibelstadt, Germany) for platelet visualization. The carotid was exteriorized and injured by topical application of a filter paper saturated with 15% ferric chloride for 1 minute. Thrombus formation in arteries was monitored for 20 minutes or until complete occlusion (stop of blood flow for >1 min). Digital films and images were recorded with a Nikon eclipse intravital microscope and analysed offline.

platelets = experiment: Plaque-induced platelet aggregation under flow; type: cell-based; details: 150 nM GPVI-CD39
[5] = 103 μg/ml collagen secreted by human fibroblasts (VitroCol)
[6] = human plaque material 333 μg/ml

IC50 (human platelets; human plaque material 333 μg/ml, approximate, read-out: IC50 of inhibition of platelet aggregation triggered by human plaque material) | Molecule | PFA-200 closure time, COL/ADP cartridges [1] | PFA-200 closure time, COL/EPI cartridges [1] | PFA-200 closure time, P2Y cartridges ([1]; 1.9 μM) | tail bleeding time (C57BL/6J mice) | inhibition of ADP-induced platelet aggregation (human platelets) | inhibition of collagen-induced platelet aggregation (human platelets; [5]) | inhibition of platelet aggregation triggered by human plaque material (human platelets; [6]) | ADPase activity in plasma over time [2] | plasma concentration time course [3] | mean plasma concentration ([3]; 5 min after application) | plasma concentration ([3]; after 48 h) | mean ADPase activity (specific activity) [4] | PFA-200 closure time, P2Y cartridges ([1]; 47 nmol/L) | PFA-200 closure time, P2Y cartridges ([1]; 217 nmol/L) | time to vessel occlusion (C57BL/6J wild type mice; 15% ferric chloride carotid injury, 3 mg/kg (10 nmol/kg) IV) | effect on ferric chloride-induced thrombus formation / occlusion time (C57BL/6J wild type mice; 15% ferric chloride, 10 nmol/kg IV (3 mg/kg GPVI-CD39, 1.5 mg/kg GPVI-Fc), versus vehicle) | inhibition of plaque-induced platelet aggregation (platelets) | inhibition of collagen-induced platelet aggregation (human platelets; 12 μg/ml collagen isolated from rabbit aorta)
– | CC(=O)Oc1ccccc1C(=O)O [ASA, acetyl salicylic acid, reference compound] | No significant differences between groups | inhibited the closure of the aperture completely; also recorded: significantly (p=0.04) prolonged | – | – | – | – | – | – | – | – | – | – | – | – | – | – | – | –
– | CCCSc1nc(N[C@@H]2C[C@H]2c2ccc(F)c(F)c2)c2nnn([C@@H]3C[C@H](OCCO)[C@@H](O)[C@H]3O)c2n1 [ticagrelor, reference compound] | No significant differences between groups | – | prolongations | – | – | – | – | – | – | – | – | – | – | – | – | – | – | –
– | B1 | No significant differences between groups | – | – | no differences | no inhibitory effect | minor inhibition | markedly and significantly less effective than GPVI-CD39 | – | – | – | – | – | – | – | – | – | – | –
~30 nM | B2 | no significant increase of closure times; also recorded: No significant differences between groups | no significant increase of closure times | – | no differences; also recorded: no effect on systemic bleeding times | Effective inhibition; also recorded: markedly reduces ADP-induced platelet aggregation | inhibited platelet aggregation significantly; also recorded: reduces platelet aggregation more strongly than GPVI-Fc alone | dose-dependent inhibition | diminished rapidly during the first 60 min but was still detectable at very low levels after 2 d | decreased rapidly in the course of two hours | 95 µg/mL | 6 µg/mL | 11.2±4.0 U/mg | statistically significant increase in closure time | statistically significant increase in closure time | 1083 s | fully effective in inhibiting arterial thrombosis; also recorded: strongly delayed ferric chloride-induced thrombus formation | 81% | highly significant, dose-dependent inhibition; also recorded: reduces platelet aggregation more strongly than GPVI-Fc alone

Reference: US11072643B2, “Fusion protein” (ADVANCECOR GMBH, priority 2017, dated 2021)
